In patent US20230038638A1, “COMPLEMENT FACTOR I-RELATED COMPOSITIONS AND METHODS” (published 2023):

Columns and labels:
[1] = molecular target: soluble human C3b (human) (UniProt P01024)
human C4b (human) = molecular target: T1, human C4b (human) (UniProt P0C0L5)
T1 sequence: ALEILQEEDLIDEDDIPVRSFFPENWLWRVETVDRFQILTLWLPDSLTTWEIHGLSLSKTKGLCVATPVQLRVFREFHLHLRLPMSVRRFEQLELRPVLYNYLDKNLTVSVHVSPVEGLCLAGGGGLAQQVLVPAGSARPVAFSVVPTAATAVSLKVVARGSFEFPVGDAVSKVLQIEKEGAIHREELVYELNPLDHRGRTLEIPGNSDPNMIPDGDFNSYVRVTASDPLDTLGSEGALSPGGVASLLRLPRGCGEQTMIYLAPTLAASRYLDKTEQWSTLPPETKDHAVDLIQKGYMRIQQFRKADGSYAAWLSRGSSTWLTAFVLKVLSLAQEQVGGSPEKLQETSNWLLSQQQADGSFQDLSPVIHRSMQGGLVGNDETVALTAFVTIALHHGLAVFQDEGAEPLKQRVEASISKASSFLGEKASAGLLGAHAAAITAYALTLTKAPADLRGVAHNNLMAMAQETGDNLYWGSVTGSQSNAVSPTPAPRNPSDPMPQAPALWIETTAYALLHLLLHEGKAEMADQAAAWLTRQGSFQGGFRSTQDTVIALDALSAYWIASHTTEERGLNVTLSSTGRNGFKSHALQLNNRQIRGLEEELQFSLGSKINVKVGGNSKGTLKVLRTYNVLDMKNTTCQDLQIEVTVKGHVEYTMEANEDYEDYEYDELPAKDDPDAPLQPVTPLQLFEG

Δ(K1-P305); GGSSGG (SEQ ID NO: 6); fH_CCP1-4 (enzyme), sequence (chain): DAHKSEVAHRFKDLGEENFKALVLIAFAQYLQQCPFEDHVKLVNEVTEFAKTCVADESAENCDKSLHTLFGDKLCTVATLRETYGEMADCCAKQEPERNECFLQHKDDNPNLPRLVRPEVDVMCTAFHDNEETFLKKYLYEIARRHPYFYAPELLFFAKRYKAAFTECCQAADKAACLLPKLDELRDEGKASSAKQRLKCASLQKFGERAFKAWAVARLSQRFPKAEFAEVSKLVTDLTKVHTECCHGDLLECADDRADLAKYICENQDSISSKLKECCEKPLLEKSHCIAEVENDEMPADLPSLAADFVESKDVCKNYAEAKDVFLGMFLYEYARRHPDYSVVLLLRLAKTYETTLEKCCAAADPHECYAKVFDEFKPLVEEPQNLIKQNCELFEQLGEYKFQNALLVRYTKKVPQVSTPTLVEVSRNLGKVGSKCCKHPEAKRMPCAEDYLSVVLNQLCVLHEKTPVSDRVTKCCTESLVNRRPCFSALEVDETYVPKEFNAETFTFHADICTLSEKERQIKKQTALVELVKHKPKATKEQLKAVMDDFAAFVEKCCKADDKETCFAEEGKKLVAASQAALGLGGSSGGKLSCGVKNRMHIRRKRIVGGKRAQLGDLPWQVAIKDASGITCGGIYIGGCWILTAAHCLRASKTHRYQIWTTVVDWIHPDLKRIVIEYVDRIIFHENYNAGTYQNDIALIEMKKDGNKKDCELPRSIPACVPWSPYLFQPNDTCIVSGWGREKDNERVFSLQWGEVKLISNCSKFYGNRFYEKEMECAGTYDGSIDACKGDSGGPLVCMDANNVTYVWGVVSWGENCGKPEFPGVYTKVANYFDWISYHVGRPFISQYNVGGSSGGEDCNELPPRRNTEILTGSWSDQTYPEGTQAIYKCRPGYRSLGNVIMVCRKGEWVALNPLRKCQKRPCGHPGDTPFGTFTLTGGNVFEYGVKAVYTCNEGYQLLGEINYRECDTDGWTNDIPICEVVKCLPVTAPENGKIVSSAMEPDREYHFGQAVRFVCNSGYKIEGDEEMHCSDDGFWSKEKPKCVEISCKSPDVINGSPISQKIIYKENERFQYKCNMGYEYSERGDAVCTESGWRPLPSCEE
Δ(K1-P305); GGSSGG (SEQ ID NO: 6); fH_CCP2-3 (enzyme), sequence (chain): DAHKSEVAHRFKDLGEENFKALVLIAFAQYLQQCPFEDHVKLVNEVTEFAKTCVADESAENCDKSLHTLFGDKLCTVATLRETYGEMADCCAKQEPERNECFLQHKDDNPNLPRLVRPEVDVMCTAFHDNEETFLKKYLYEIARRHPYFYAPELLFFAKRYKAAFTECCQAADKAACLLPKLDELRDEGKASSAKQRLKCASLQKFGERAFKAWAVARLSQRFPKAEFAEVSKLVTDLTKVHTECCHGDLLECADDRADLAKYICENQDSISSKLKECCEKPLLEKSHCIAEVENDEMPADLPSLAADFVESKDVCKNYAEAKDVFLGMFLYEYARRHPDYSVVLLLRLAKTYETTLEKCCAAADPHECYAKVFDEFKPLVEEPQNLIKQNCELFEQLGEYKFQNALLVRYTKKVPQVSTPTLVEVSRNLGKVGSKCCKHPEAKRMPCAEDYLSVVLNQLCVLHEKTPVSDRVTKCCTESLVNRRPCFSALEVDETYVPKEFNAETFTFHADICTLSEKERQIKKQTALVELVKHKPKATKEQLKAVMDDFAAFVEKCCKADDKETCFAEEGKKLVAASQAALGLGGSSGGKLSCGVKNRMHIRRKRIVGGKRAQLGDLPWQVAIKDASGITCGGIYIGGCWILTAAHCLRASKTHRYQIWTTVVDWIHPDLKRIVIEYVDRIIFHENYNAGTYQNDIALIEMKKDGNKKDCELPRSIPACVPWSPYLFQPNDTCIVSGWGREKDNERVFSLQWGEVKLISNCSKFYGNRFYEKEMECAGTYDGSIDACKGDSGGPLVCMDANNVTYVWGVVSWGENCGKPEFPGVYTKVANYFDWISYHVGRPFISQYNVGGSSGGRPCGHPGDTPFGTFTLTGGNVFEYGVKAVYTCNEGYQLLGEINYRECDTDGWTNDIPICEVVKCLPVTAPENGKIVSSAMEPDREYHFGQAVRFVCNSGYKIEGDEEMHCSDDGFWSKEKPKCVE

iC3b Screen Ref Fold (fold vs CFI-HSA wild type) [1] | C4b Screen Ref Fold (fold vs CFI-HSA wild type) (human C4b (human)) | iC3b Screen Ref Fold (fold of CFI-HSA wild type) [1] | C4b Screen Ref Fold (fold of CFI-HSA wild type) (human C4b (human)) | Substance
1.93 | 1.07 | – | – | CFI-HSA D459G (enzyme)
– | – | 0.62 | 2.44 | CFI-HSA variant S552G; Y553H; F559L; V565I; P558S (enzyme)
– | – | 0.14 | 3.53 | CFI-HSA variant N531G; P535A; GGSSGG (SEQ ID NO: 6); CR1(ccp15-17) (from UniProt P17927) (enzyme)
– | – | 0.35 | 0.77 | CFI-HSA variant Y553F; F559L (enzyme)
0.02 | -0.02 | – | – | CFI-HSA variant T495F; Y496L; D497E; S499G; I500K; G533A; K534Q; P535K; E536N; F537K (enzyme)
– | – | -0.01 | 5.42 | CFI-HSA variant E457G; E461Q; R462K; F464Y; N531G; GGSSGG (SEQ ID NO: 6); CR1(ccp15-17) (from UniProt P17927) (enzyme)
2.11 | 2.25 | – | – | CFI-HSA Y408L; N531G; E530Y (enzyme)
0.03 | 0.02 | – | – | CFI-HSA variant Δ(K1-P305); N531G (enzyme)
0.5 | 0.56 | – | – | CFI-HSA R365A (enzyme)
0.04 | 0.06 | – | – | CFI-HSA variant Δ(K1-P305) (enzyme)
2.08 | 2.99 | – | – | CFI-HSA Y408L; N531G; D425R; E530Y (enzyme)
0.24 | 0.07 | – | – | CFI-HSA variant Y408R (enzyme)
0.16 | 2.48 | – | – | CFI-HSA R557M (enzyme)
– | – | 0.24 | 0.35 | CFI-HSA variant P535G; K534Q (enzyme)
– | – | 0.06 | 3.06 | CFI-HSA variant N531G; P535G; WT; GGSSGG (SEQ ID NO: 6); CR1(ccp15-17) (from UniProt P17927) (enzyme)
0 | -0.05 | – | – | CFI-HSA variant R462D (enzyme)
0.56 | 0.96 | – | – | CFI-HSA R365T (enzyme)
– | – | -0.01 | -0.01 | CFI-HSA variant S507A; GGSSGG (SEQ ID NO: 6); CR1(ccp15-17) (from UniProt P17927) (enzyme)
0.12 | 2.36 | – | – | CFI-HSA R557W (enzyme)
0.93 | 0.67 | – | – | CFI-HSA Y553L (enzyme)
– | – | 0.1 | 3.65 | CFI-HSA variant Y408L; E457G; N531G; WT; GGSSGG (SEQ ID NO: 6); CR1(ccp15-17) (from UniProt P17927) (enzyme)

iC3b Screen Ref Fold (fold vs CFI-HSA wild type) [1] | C4b Screen Ref Fold (fold vs CFI-HSA wild type) (human C4b (human)) | iC3b Screen Ref Fold (fold of CFI-HSA wild type) [1] | C4b Screen Ref Fold (fold of CFI-HSA wild type) (human C4b (human)) | Substance
0.3 | 1.16 | – | – | CFI-HSA R365I (enzyme)
0.04 | 0.15 | – | – | Δ(K1-P305); GGSSGG (SEQ ID NO: 6); fH_CCP1-4 (enzyme)
1.46 | 0.74 | – | – | CFI-HSA A366G (enzyme)
0.13 | 4.44 | – | – | CFI-HSA E457G; E461Q; F464Y; N531G; GGSSGG (SEQ ID NO: 6); CR1 (ccp15-17) (from UniProt P17927) (enzyme)
0.64 | 0.23 | – | – | CFI-HSA R365F (enzyme)
0.99 | 0.64 | – | – | CFI-HSA variant K14A; D425R (enzyme)
– | – | 0.68 | 1.86 | CFI-HSA variant G556P; P558G (enzyme)
1.12 | 2 | – | – | CFI-HSA Y408L; E457G; E530Y (enzyme)
1.1 | 0.37 | – | – | CFI-HSA Y553V (enzyme)
1.04 | 0.35 | – | – | CFI-HSA K424F (enzyme)
1.05 | 0.33 | – | – | CFI-HSA K424P (enzyme)
– | – | 0.49 | 1.8 | CFI-HSA variant S552G; F559L; V565I; P558S (enzyme)
0.03 | 0.06 | – | – | CFI-HSA variant Δ(K1-P305); 1317D-R318D-R319D-K320D-R321K (enzyme)
0.04 | 0.1 | – | – | CFI-HSA R365N (enzyme)
0.76 | 0.57 | – | – | CFI-HSA variant E536A (enzyme)
0.52 | 0.13 | – | – | CFI-HSA H370G (enzyme)
– | – | 0.03 | 3.64 | CFI-HSA variant Y408L; WT; GGSSGG (SEQ ID NO: 6); CR1(ccp15-17) (from UniProt P17927) (enzyme)
1.81 | 4.69 | – | – | CFI-HSA N531G; E457G; E461Q; R557K (enzyme)
0.77 | 0.64 | – | – | CFI-HSA R484G (enzyme)
0 | 0.02 | – | – | CFI-HSA variant D506A (enzyme)
0.03 | 0.02 | – | – | CFI-HSA R365D (enzyme)

iC3b Screen Ref Fold (fold vs CFI-HSA wild type) [1] | C4b Screen Ref Fold (fold vs CFI-HSA wild type) (human C4b (human)) | iC3b Screen Ref Fold (fold of CFI-HSA wild type) [1] | C4b Screen Ref Fold (fold of CFI-HSA wild type) (human C4b (human)) | Substance
0.01 | 0.05 | – | – | Δ(K1-P305); GGSSGG (SEQ ID NO: 6); fH_CCP2-3 (enzyme)
1.09 | 0.77 | – | – | CFI-HSA Y553Q (enzyme)
0.91 | 0.28 | – | – | CFI-HSA K424L (enzyme)
1.81 | 4.28 | – | – | CFI-HSA E457G; E461Q; R557K (enzyme)
-0.02 | 1.15 | – | – | CFI-HSA R557E (enzyme)
– | – | 0.85 | 1.41 | CFI-HSA variant V565I; P558S (enzyme)
0.29 | -0.1 | – | – | CFI-HSA K424S (enzyme)
0.49 | 1.85 | – | – | CFI-HSA variant M220A-K221Q (enzyme)
0.67 | 0.21 | – | – | CFI-HSA variant Y20F; E38A; S250A; D425A (enzyme)
– | – | 0 | 2.73 | CFI-HSA variant P535G; WT; GGSSGG (SEQ ID NO: 6); CR1(ccp15-17) (from UniProt P17927) (enzyme)
0.11 | 2.44 | – | – | CFI-HSA R557H (enzyme)
– | – | -0.04 | 1.73 | CFI-HSA variant E457G; GGSSGG (SEQ ID NO: 6); CR1(ccp1-3) (from UniProt P17927) (enzyme)
– | – | 0.42 | 0.73 | CFI-HSA variant S552G; F559L; V565I (enzyme)
-0.05 | 0.01 | – | – | CFI-HSA W528G (enzyme)
0.03 | 0.06 | – | – | (HSA-GS)-V311-V565 - G(13) - K1-G310; C309S; C435S (enzyme)
0.2 | 0.1 | – | – | CFI-HSA D549L (enzyme)
0.05 | 0.15 | – | – | CFI-HSA variant Δ(K1-P305); N531G; P535A (enzyme)
– | – | 0.18 | 2.33 | CFI-HSA variant S552G; Y553H; F559L; P558S (enzyme)
0.69 | 1.49 | – | – | fH_CCP1-4; GGSS(11); wt hCFI (enzyme)
